The values that follow come from US20250075190A1, “DE NOVO DESIGNED LUCIFERASE” (UNIVERSITY OF WASHINGTON, priority 2022, published 2025).

The nature of data set [1]: Luciferase activities of re-designed sequences based on LuxSit-i (Table 1). The settings on record: LuxSit-f and re-designed sequences based on LuxSit-i (Table 1). The data set is classed as biochemical. From the text: In another embodiment, the proteins comprise an amino acid sequence at least 30%, 35%, 40%, 45%, 50%, 55%, 60%, 65%, 70%, 75%, 80%, 85%, 90%, 91%, 92%, 93%, 94%, 95%, 96%, 97%, 98%, 99%, or 100% identical to the amino acid selected from the group consisting of SEQ ID NO:1-181, as shown in Table 1. SEQ ID NO:5-181 in Table 1 are re-designed amino acid sequences based on LuxSit-i (SEQ ID NO:2), with their luciferase activities shown.

The conditions of data set [2]: for Relative emission intensity: integrated luminescence intensity over the first 20 min, normalized to LuxSit, 25 μM DTZ in Tris pH 8.0 buffer; for increase of activity over LuxSit: DTZ.
Data set [3] in a line: Circular dichroism spectra and thermal denaturation. The data set is classed as physicochemical. The settings on record: 220 nm, 25° C. to 95° C. From the text: (§1) Synthetic genes and oligonucleotides were purchased from Integrated DNA Technologies or GenScript. The synthetic gene was inserted between NdeI and XhoI sites of a pET29b+ vector, containing an N-terminal hexahistidine tag followed by a TEV protease cleavage site and a C-terminal stop codon. Restriction endonucleases, Q5 PCR polymerase, and T4 ligase were purchased from NEB. Plasmid DNA, PCR products, or digested fragments were purified by Qiagen DNA purification kits. DNA sequences were analyzed by Genewiz. Coelenterazine (CTZ) was purchased from Gold Biotechnology. Diphenylterazine (DTZ), pyridyl diphenylterazine (8pyDTZ), and Furimazine (FRZ) were purchased from MedChemExpress. […] DNA and protein concentrations were determined by a NanoDrop™ small-volume 8 channel UV/vis spectrometer. […] All luminescence measurements were acquired by a Biotek Synergy Neo2T™ Multi-Mode Plate Reader. To convert relative arbitrary unit (RLU) to the number of photons, Neo2 plate reader was calibrated by determining the chemiluminescence of luminol with known quantum yield in the presence of horseradish peroxidase and hydrogen peroxide in K2CO3 aqueous solution as previously described^45. SDS PAGE and luminescence images were captured by a Bio-Rad ChemiDocT™ XRS+. Images were analyzed using the Fiji image analysis software.
Purified protein samples were prepared at 15 μM in pH 7.4 10 mM phosphate buffer. Spectra from 190 nm to 260 nm were recorded at 25° C., 50° C., 75° C., 95° C., and after cooling back to 25° C. Thermal denaturation was monitored at 220 nm from 25° C. to 95° C. […]
For orientation: CD spectra are sensitive to the conformation of chiral molecules.

Data set [4] is described as follows: Luminescent quantum yield of LuxSit variants. It is filed as biochemical. To be noted: consuming 125 pmol of DTZ in PBS with 50 nM recombinant luciferase; estimated relative to reported quantum yield of RLuc; mean ± s.d., n = 3. As for the experimental part: FIG. 10. Additional characterization of LuxSit variants. (a) Normalized emission kinetics of 15,000 intact HeLa cells expressing LuxSit-i, 100 nM purified LuxSit-i, or 100 nM purified LuxSit-f in the presence of 50 μM DTZ. The more extended emission kinetics in HeLa cells is likely due to the diffusion rate of DTZ across cell membranes. […] (c) Luminescent quantum yield was estimated from the integrated luminescence signal until completely converting 125 pmol substrates to photons in the presence of 50 nM corresponding luciferase (see Methods). All data points were plotted as the average of triplicate measurements.
For Michaelis-Menten kinetics measurements, 25 μL of serial diluted DTZ substrate in Tris pH 8.0 buffer was added into the wells of a white 96-well half-area microplate containing 25 μL of purified luciferases (final enzyme concentration: 100 nM; substrate concentration: 0.78 to 50 μM). […] The luminescence signals were monitored until the reactions were completed (0.1 s integration and measurements were taken every 5 s for a total of 40 min). […] In vitro luminescence activity measurements of LuxSit-i expressing HEK293T or HeLa cells were done similarly as 15,000 intact cells or lysates were used in the assay instead of purified luciferases. […] Data were shown as the total luminescence signal over the first 10 min. […]

Data set [5] can be described thus: Michaelis-Menten kinetics measurements of purified luciferases. The data set is classed as biochemical. The settings on record: DTZ; mean (95% CI), n = 3. The method, then:
For Michaelis-Menten kinetics measurements, 25 μL of serial diluted DTZ substrate in Tris pH 8.0 buffer was added into the wells of a white 96-well half-area microplate containing 25 μL of purified luciferases (final enzyme concentration: 100 nM; substrate concentration: 0.78 to 50 μM). Measurements were taken every 1 min (0.1 s integration and 10 s shaking between each interval) for a total of 20 min. Initial velocities were estimated as the average of the light intensities from the first three data points to fit the Michaelis-Menten equation. All relative arbitrary unit (RLU) per second values were converted to photon/s by the luminol-H2O2—HRP calibration method^45. Following the equation: Imax=LQY×kcat×[E], Imax is the maximal photon flux (photon s^−1), [E] is the total enzyme concentration, and V ax is the maximum photon flux per molecule (photon s^−1 molecule^−1) from the fitting of the Michaelis-Menten equation. To determine the luminescent quantum yields, 25 μL of 5 μM individual substrate in PBS was injected into 25 μL PBS containing 100 nM corresponding luciferase. DTZ was used for all LuxSit variants while CTZ was used as the substrate of native RLuc. The luminescence signals were monitored until the reactions were completed (0.1 s integration and measurements were taken every 5 s for a total of 40 min). […] To record emission spectra, 25 μL of 50 μM DTZ in PBS were injected into 25 μL of 200 nM pure luciferases and the emission spectra were collected with 0.1 s integration and 2 nm increments from 300 to 700 num. In vitro luminescence activity measurements of LuxSit-i expressing HEK293T or HeLa cells were done similarly as 15,000 intact cells or lysates were used in the assay instead of purified luciferases. To evaluate the substrate specificity, 25 μL of 50 μM substrate analogs in PBS were added to 25 μL of 200 nM indicated luciferases, and the signals were recorded over 20 min. Data were shown as the total luminescence signal over the first 10 min. We normalized the data by setting the highest emission substrate at 100%.

Substrate in data set [6]: Oc1ccc(Cc2nc3c(Cc4ccccc4)nc(-c4ccc(O)cc4)cn3c2O)cc1
Put plainly: Michaelis-Menten kinetics of native Renilla luciferase (RLuc) with CTZ. The data set is classed as biochemical, Renilla reniformis. The settings on record: other: substrate CTZ; Table 3; pH 8.0.
Excerpt: as §1
For Michaelis-Menten kinetics measurements, 25 μL of serial diluted DTZ substrate in Tris pH 8.0 buffer was added into the wells of a white 96-well half-area microplate containing 25 μL of purified luciferases (final enzyme concentration: 100 nM; substrate concentration: 0.78 to 50 μM). […] The luminescence signals were monitored until the reactions were completed (0.1 s integration and measurements were taken every 5 s for a total of 40 min). […] In vitro luminescence activity measurements of LuxSit-i expressing HEK293T or HeLa cells were done similarly as 15,000 intact cells or lysates were used in the assay instead of purified luciferases. […]

B1: LuxSit: de novo designed DTZ luciferase, 117 residues, SEQ ID NO:1 (protein)
chain: MSEEQIRQFLRRFYEALDSGDADTAASLFHPGVTIHLWDGVTFTSREEFREWFERLFSTRKDAQREIKSLEVRGDTVEVHVQLHATHNGQKHTVDATHHWHFRGNRVTEMRVHINPTG
modifications: VARIANT 1 optionally absent; VARIANT 118 optionally absent
In data set [1], B1 came in with an Activity of 75.3. The Relative emission intensity in data set [2] turned out to be 1. The “thermal stability (CD melting)” value in data set [3] is “not fully unfolded at 95 °C”.

B2: LuxSit-f: LuxSit variant A96M/M110V, SEQ ID NO:3, strong initial flash emission (protein)
chain: MSEEQIRQFLRRFYEALDSGDADTAASLFHPGVTIHLWDGVTFTSREEFREWFERLFSTRKDAQREIKSLEVRGDTVEVHVQLHATHNGQKHTVDMTHHWHFRGNRVTEVRVHINPTG
modifications: VARIANT 1 optionally absent; VARIANT 118 optionally absent
Take B2: in data set [4], the “LQY (luminescent quantum yield)” value is 10.9 ± 1.5%. The molecule further registered an Activity in data set [1] of 534.5. Moreover, the Relative emission intensity in data set [2] is 60.9. Also, the “thermal stability (CD melting)” value in data set [3] was “thermostable”.

B3: A96M: LuxSit mutant A96M (protein)
chain: MSEEQIRQFLRRFYEALDSGDADTAASLFHPGVTIHLWDGVTFTSREEFREWFERLFSTRKDAQREIKSLEVRGDTVEVHVQLHATHNGQKHTVDMTHHWHFRGNRVTEMRVHINPTG
modifications: VARIANT 1 optionally absent; VARIANT 118 optionally absent
In the case of B3, in data set [2], the “increase of activity over LuxSit” value is reported as 16 fold and the Relative emission intensity amounted to 16.4.

B4: M110V: LuxSit mutant M110V (protein)
chain: MSEEQIRQFLRRFYEALDSGDADTAASLFHPGVTIHLWDGVTFTSREEFREWFERLFSTRKDAQREIKSLEVRGDTVEVHVQLHATHNGQKHTVDATHHWHFRGNRVTEVRVHINPTG
modifications: VARIANT 1 optionally absent; VARIANT 118 optionally absent
For orientation: Km means the concentration of substrate that gives half-maximal velocity. On to B4, for which, in data set [5], the Km came out at 30.3 µM and the Vmax is reported as 7.1(6.2-8.4) ×10^−2 photon s^−1 molecule^−1. For the same molecule, in data set [2], the “increase of activity over LuxSit” value amounted to 19 fold and the Relative emission intensity is listed as 19.3.

B5: native Renilla reniformis luciferase (RLuc) (Renilla reniformis) (protein)
chain: MTSKVYDPEQRKRMITGPQWWARCKQMNVLDSFINYYDSEKHAENAVIFLHGNAASSYLWRHVVPHIEPVARCIIPDLIGMGKSGKSGNGSYRLLDHYKYLTAWFELLNLPKKIIFVGHDWGACLAFHYSYEHQDKIKAIVHAESVVDVIESWDEWPDIEEDIALIKSEEGEKMVLENNFFVETMLPSKIMRKLEPEEFAAYLEPFKEKGEVRRPTLSWPREIPLVKGGKPDVVQIVRNYNAYLRASDDLPKMFIESDPGFFSNAIVEGAKKFPNTEFVKVKGLHFSQEDAPDEMGKYIKSFVERVLKNEQ
notes: host and tag of RLuc not clearly stated
A word on the kcat: it is the maximal rate divided by the concentration of active sites. As usually defined, the kcat/Km is the turnover number divided by the Michaelis constant. Consider B5, for which, in data set [6], the Km was found to be 1.5 µM, the catalytic constant (kcat) was determined as 4.9 s⁻¹ and the kcat/Km was determined as 3.3e+06 M⁻¹ s⁻¹.
